For experiment [1], the target named is plasma-derived von Willebrand factor, highly purified in-house control preparation (human) (UniProt P04275). The experiment is described as follows: ELISA + SPR; VWF:FVIIIB, measured by an ELISA combined with a chromogenic assay (ECA) and by Biacore; the table does not say which gave the percent. (An ELISA detects its analyte on a solid surface through an enzyme-linked reagent.)

Experiment [2] has as its target recombinant von Willebrand factor, furin-matured (human) (UniProt P04275). The description is as above.

With factor VIII, P00451 20-2351, the VWF:FVIII binding capacity (%) was determined as 109% in experiment [1] and 108% in experiment [2].

Values taken from PMC12460018.
